# Patent US20210246166A1 (Bayer, published 2021)
# Bridge positions count the residues as written; N and C are the ends. Square brackets hold non-standard residues; d marks the D form. Primed or numbered codes have the meaning given here. Ends that are not written are not given here. * marks the point of attachment. Tranexamic″ = tranexamic acid, NC[C@H]1CC[C@@H](C(=O)*)CC1; Pro(trans-4-F) = O=C(O)[C@@H]1C[C@@H](F)CN1; Oic = O=C(O)[C@@H]1C[C@@H]2CCCC[C@@H]2N1; Cyclobutylacetic = O=C(CC1CCC1)*; NMeI = CC[C@H](C)[C@H](NC)C(=O)O; aIle = CC[C@@H](C)[C@H](N)C(=O)O; tBuAla = CC(C)(C)C[C@H](N)C(=O)O; aThr = C[C@H](O)[C@H](N)C(=O)O; Chg = N[C@H](C(=O)O)C1CCCCC1; Pen = CC(C)(S)[C@H](N)C(=O)O; NMeC = CN[C@@H](CS)C(=O)O; Aib = CC(C)(N)C(=O)O; Sar = CNCC(=O)O
# B1: ((N-Me)G)-IC+SRSLPPIC+I-((trans-4-Fluoro)P)-D-OH (peptide)
# peptide: [Sar]ICSRSLPPICI[Pro(trans-4-F)]D-OH
# modifications: disulfide 3-11; N-terminus assumed
# SMILES: CC[C@H](C)[C@H](NC(=O)CNC)C(=O)N[C@H]1CSSC[C@@H](C(=O)N[C@H](C(=O)N2C[C@H](F)C[C@H]2C(=O)N[C@@H](CC(=O)O)C(=O)O)[C@@H](C)CC)NC(=O)[C@H]([C@@H](C)CC)NC(=O)[C@@H]2CCCN2C(=O)[C@@H]2CCCN2C(=O)[C@H](CC(C)C)NC(=O)[C@H](CO)NC(=O)[C@H](CCCNC(=N)N)NC(=O)[C@H](CO)NC1=O
# B2: ((N-Me)G)-IC+SRSLPP-(Chg)-C+IPD-NH2 (peptide)
# peptide: [Sar]ICSRSLPP[Chg]CIPD-NH2
# modifications: disulfide 3-11; N-terminus assumed
# SMILES: CC[C@H](C)[C@H](NC(=O)CNC)C(=O)N[C@H]1CSSC[C@@H](C(=O)N[C@H](C(=O)N2CCC[C@H]2C(=O)N[C@@H](CC(=O)O)C(N)=O)[C@@H](C)CC)NC(=O)[C@H](C2CCCCC2)NC(=O)[C@@H]2CCCN2C(=O)[C@@H]2CCCN2C(=O)[C@H](CC(C)C)NC(=O)[C@H](CO)NC(=O)[C@H](CCCNC(=N)N)NC(=O)[C@H](CO)NC1=O
# B3: Ac-IC+SRS-((tBu)A)-PPI-((N-Me)C)+I-NH2 (peptide)
# peptide: Ac-ICSRS[tBuAla]PPI[NMeC]I-NH2
# modifications: disulfide 2-10
# SMILES: CC[C@H](C)[C@H](NC(=O)[C@@H]1CSSC[C@H](NC(=O)[C@@H](NC(C)=O)[C@@H](C)CC)C(=O)N[C@@H](CO)C(=O)N[C@@H](CCCNC(=N)N)C(=O)N[C@@H](CO)C(=O)N[C@@H](CC(C)(C)C)C(=O)N2CCC[C@H]2C(=O)N2CCC[C@H]2C(=O)N[C@@H]([C@@H](C)CC)C(=O)N1C)C(N)=O
# B4: (Cyclobutylacetic)-IC+SRS-((tBu)A)-PPI-(Pen)+IP-NH2 (peptide)
# peptide: Cyclobutylacetic-ICSRS[tBuAla]PPI[Pen]IP-NH2
# modifications: disulfide 2-10
# SMILES: CC[C@H](C)[C@H](NC(=O)CC1CCC1)C(=O)N[C@H]1CSSC(C)(C)[C@@H](C(=O)N[C@H](C(=O)N2CCC[C@H]2C(N)=O)[C@@H](C)CC)NC(=O)[C@H]([C@@H](C)CC)NC(=O)[C@@H]2CCCN2C(=O)[C@@H]2CCCN2C(=O)[C@H](CC(C)(C)C)NC(=O)[C@H](CO)NC(=O)[C@H](CCCNC(=N)N)NC(=O)[C@H](CO)NC1=O
# B5: GIC+SRSLPPIC+I-(Aib)-D-OH (peptide)
# peptide: GICSRSLPPICI[Aib]D-OH
# modifications: disulfide 3-11; N-terminus assumed
# SMILES: CC[C@H](C)[C@H](NC(=O)CN)C(=O)N[C@H]1CSSC[C@@H](C(=O)N[C@H](C(=O)NC(C)(C)C(=O)N[C@@H](CC(=O)O)C(=O)O)[C@@H](C)CC)NC(=O)[C@H]([C@@H](C)CC)NC(=O)[C@@H]2CCCN2C(=O)[C@@H]2CCCN2C(=O)[C@H](CC(C)C)NC(=O)[C@H](CO)NC(=O)[C@H](CCCNC(=N)N)NC(=O)[C@H](CO)NC1=O
# B6: G-((N-Me)I)-C+SRSLPPIC+IPd-OH (peptide)
# peptide: G[NMeI]CSRSLPPICIP[dD]-OH
# modifications: disulfide 3-11; N-terminus assumed
# SMILES: CC[C@H](C)[C@@H]1NC(=O)[C@@H]2CCCN2C(=O)[C@@H]2CCCN2C(=O)[C@H](CC(C)C)NC(=O)[C@H](CO)NC(=O)[C@H](CCCNC(=N)N)NC(=O)[C@H](CO)NC(=O)[C@@H](NC(=O)[C@H]([C@@H](C)CC)N(C)C(=O)CN)CSSC[C@@H](C(=O)N[C@H](C(=O)N2CCC[C@H]2C(=O)N[C@H](CC(=O)O)C(=O)O)[C@@H](C)CC)NC1=O
# B7: ((N-Me)G)-IC+SRSLPPIC+(allo-I)-PD-NH2 (peptide)
# peptide: [Sar]ICSRSLPPIC[aIle]PD-NH2
# modifications: disulfide 3-11; N-terminus assumed
# SMILES: CC[C@@H](C)[C@H](NC(=O)[C@@H]1CSSC[C@H](NC(=O)[C@@H](NC(=O)CNC)[C@@H](C)CC)C(=O)N[C@@H](CO)C(=O)N[C@@H](CCCNC(=N)N)C(=O)N[C@@H](CO)C(=O)N[C@@H](CC(C)C)C(=O)N2CCC[C@H]2C(=O)N2CCC[C@H]2C(=O)N[C@@H]([C@@H](C)CC)C(=O)N1)C(=O)N1CCC[C@H]1C(=O)N[C@@H](CC(=O)O)C(N)=O
# B8: (Tranexamic)-IC+SRS-((tBu)A)-PPI-((N-Me)C)+I-NH2 (peptide)
# peptide: {Tranexamic″}-ICSRS[tBuAla]PPI[NMeC]I-NH2
# modifications: disulfide 2-10
# SMILES: CC[C@H](C)[C@H](NC(=O)[C@@H]1CSSC[C@H](NC(=O)[C@@H](NC(=O)[C@H]2CC[C@@H](CN)CC2)[C@@H](C)CC)C(=O)N[C@@H](CO)C(=O)N[C@@H](CCCNC(=N)N)C(=O)N[C@@H](CO)C(=O)N[C@@H](CC(C)(C)C)C(=O)N2CCC[C@H]2C(=O)N2CCC[C@H]2C(=O)N[C@@H]([C@@H](C)CC)C(=O)N1C)C(N)=O
# B9: AIC+SR-(allo-T)-LPPIC+IPD-NH2 (peptide)
# peptide: AICSR[aThr]LPPICIPD-NH2
# modifications: disulfide 3-11; N-terminus assumed
# SMILES: CC[C@H](C)[C@H](NC(=O)[C@H](C)N)C(=O)N[C@H]1CSSC[C@@H](C(=O)N[C@H](C(=O)N2CCC[C@H]2C(=O)N[C@@H](CC(=O)O)C(N)=O)[C@@H](C)CC)NC(=O)[C@H]([C@@H](C)CC)NC(=O)[C@@H]2CCCN2C(=O)[C@@H]2CCCN2C(=O)[C@H](CC(C)C)NC(=O)[C@H]([C@H](C)O)NC(=O)[C@H](CCCNC(=N)N)NC(=O)[C@H](CO)NC1=O
# B10: ((N-Me)G)-IC+SRSLPPIC+IPD-OH (peptide)
# peptide: [Sar]ICSRSLPPICIPD-OH
# modifications: disulfide 3-11; N-terminus assumed
# SMILES: CC[C@H](C)[C@H](NC(=O)CNC)C(=O)N[C@H]1CSSC[C@@H](C(=O)N[C@H](C(=O)N2CCC[C@H]2C(=O)N[C@@H](CC(=O)O)C(=O)O)[C@@H](C)CC)NC(=O)[C@H]([C@@H](C)CC)NC(=O)[C@@H]2CCCN2C(=O)[C@@H]2CCCN2C(=O)[C@H](CC(C)C)NC(=O)[C@H](CO)NC(=O)[C@H](CCCNC(=N)N)NC(=O)[C@H](CO)NC1=O
# Molecular target: Recombinant human MASP2 enzyme (fragment corresponding to amino acids 297-686, C-terminal His Tag) (human, UniProt O00187 297-686)
# Test: cell-based or functional assay
# Chain of Recombinant human MASP2 enzyme (fragment corresponding to amino acids 297-686, C-terminal His Tag) (O00187 other isoform, or with tags, fused parts or gaps limits assumed): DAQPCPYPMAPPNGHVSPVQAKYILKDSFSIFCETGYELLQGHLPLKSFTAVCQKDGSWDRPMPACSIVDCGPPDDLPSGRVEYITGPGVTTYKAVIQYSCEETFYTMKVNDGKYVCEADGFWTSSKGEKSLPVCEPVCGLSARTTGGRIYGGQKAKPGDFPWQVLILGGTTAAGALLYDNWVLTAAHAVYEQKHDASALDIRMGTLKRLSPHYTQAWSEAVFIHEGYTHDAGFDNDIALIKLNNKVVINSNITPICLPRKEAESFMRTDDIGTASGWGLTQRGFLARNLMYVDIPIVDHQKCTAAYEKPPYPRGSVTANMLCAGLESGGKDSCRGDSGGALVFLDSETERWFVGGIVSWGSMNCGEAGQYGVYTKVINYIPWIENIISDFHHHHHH
row,Binder,human MASP2 IC50
1,B1,490 nM
2,B2,891 nM
3,B3,61 nM
4,B4,9.3 nM
5,B5,160 nM
6,B6,1300 nM
7,B7,170 nM
8,AICSRS[3‑(Trimethylsilyl)‑L‑alanine]P[Oic]I[NMeC]IPD-NH2 (disulfide 3-11) [AIC+SRS-(3-(Trimethylsilyl)-L-alanine)-P-(Oic)-I-((N-Me)C)+IPD-NH2],1100 nM
9,B8,26 nM
10,B9,330 nM
11,B10,535 nM

# Molecular target: T1, Recombinant human MASP1 enzyme (fragment corresponding to amino acids 297-699, C-terminal His Tag) (human, UniProt P48740 297-699)
# T1 sequence: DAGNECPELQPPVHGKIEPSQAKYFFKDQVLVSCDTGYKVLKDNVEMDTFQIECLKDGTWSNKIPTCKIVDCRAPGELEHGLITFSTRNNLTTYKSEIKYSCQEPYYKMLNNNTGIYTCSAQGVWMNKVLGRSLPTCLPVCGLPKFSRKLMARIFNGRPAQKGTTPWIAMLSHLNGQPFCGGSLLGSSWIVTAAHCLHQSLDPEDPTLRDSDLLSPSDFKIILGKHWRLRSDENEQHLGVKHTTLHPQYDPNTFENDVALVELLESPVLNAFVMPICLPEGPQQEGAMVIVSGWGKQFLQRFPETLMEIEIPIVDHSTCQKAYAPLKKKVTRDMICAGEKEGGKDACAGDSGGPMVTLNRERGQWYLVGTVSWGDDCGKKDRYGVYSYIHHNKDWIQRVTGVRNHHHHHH
# Test: cell-based or functional assay
row,Binder,human MASP1 IC50
1,B1,16 nM
2,B2,15 nM
3,B3,14 nM
4,B4,15 nM
5,B5,16 nM
6,B6,14 nM
7,B7,14 nM
8,AICSRS[3‑(Trimethylsilyl)‑L‑alanine]P[Oic]I[NMeC]IPD-NH2 (disulfide 3-11) [AIC+SRS-(3-(Trimethylsilyl)-L-alanine)-P-(Oic)-I-((N-Me)C)+IPD-NH2],14 nM
9,B8,15 nM
10,B9,14 nM
11,B10,15 nM
